Reference: patent US20250333497A1 (University of California, published 2025)
Where a chain is given by its changes, count along the chain named. Each block holds one binder with its values, some of them ahead of it.

Columns and labels:
[1] = target: T1, Full length PLXDC1 (PLXDC1-Full) (Homo sapiens (Human), UniProt Q8IUK5 19-500); experiment: staining of transfected cells (FIG. 3-4)
T1 construct: also called full PLXDC1 protein
T1 sequence: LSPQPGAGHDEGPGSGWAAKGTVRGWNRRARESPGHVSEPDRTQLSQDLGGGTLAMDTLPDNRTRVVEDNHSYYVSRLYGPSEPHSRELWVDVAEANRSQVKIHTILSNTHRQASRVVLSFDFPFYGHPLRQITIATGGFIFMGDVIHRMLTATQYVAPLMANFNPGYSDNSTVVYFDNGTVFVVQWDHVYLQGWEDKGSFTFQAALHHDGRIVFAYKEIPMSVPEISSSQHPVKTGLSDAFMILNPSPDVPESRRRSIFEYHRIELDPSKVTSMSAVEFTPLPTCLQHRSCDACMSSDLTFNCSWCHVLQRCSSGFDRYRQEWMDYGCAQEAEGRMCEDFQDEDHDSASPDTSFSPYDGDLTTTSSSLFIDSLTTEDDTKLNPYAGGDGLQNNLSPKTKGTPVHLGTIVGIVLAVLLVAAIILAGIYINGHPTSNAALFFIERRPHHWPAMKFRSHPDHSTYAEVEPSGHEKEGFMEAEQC
From the text: (§1) Both full length PLXDC1 and Domain A deleted PLXDC1 (PLXDC1-dA) have an epitope tag on the N-terminus.

[2] = target: T2, domain A-deleted PLXDC1 (PLXDC1-dA) (Homo sapiens (Human), UniProt Q8IUK5 128-500); experiment: staining of transfected cells (FIG. 4A-H)
T2 construct: also called mutant with Domain A deleted
From the text: as §1

[3] = target: T2, domain A-deleted PLXDC1 (PLXDC1-dA); experiment: staining of transfected cells (FIG. 3C-H)
From the text: as §1

- binding result [1]: binds
- binding result [2]: no binding
B1: A006 (antibody, V domains shown)
VH: QVQLVQSGAEVKKPGSSVKVSCKASGGTFSTEYISWVRQAPGQGLEWMGRIIPVLGITNYAQKFQGRVTITADESTSTAYMELSSLRSEDTAVYYCARHLGPPYLVTYSHGFDVWGQGTLVTVSS
VL: EIVMTQSPATLSVSPGERATLSCRASQSLGTNLAWYQQKPGQAPRLLIYGASTRATGIPARFSGSGSGTEFTLTISSLQSEDFAVYYCQQYYEAPPTFGQGTKVEIK
notes: VH/VL only; also called 3-G7

- binding result [1]: binds
- binding result [2]: no binding
B2: A007 (antibody, V domains shown)
VH: EVQLLESGGGLVQPGGSLRLSCAASGFTFRNYAMSWVRQAPGKGLEWVSSISGGGINTYYADSVKGRFTISRDNSKNTLYLQMNSLRAEDTAVYYCARVRSYSGPGYFDYWGQGTLVTVSS
VL: B1 VL with E17D, Q27R, L29V, G30S, T31S, E93N, A94W, P96L
notes: VH/VL only; also called 8-A7

- binding result [1]: binds
- binding result [3]: no binding
B3: A003 (antibody, V domains shown)
VH: QVQLVESGGGVVQPGRSLRLSCAASGFTFRDYGMHWVRQAPGKGLEWVAVISYHGRNEYYANSVKGRFTISRDNSKNTLYLQMNSLRAEDTAVYYCARGAYGDDFDVWGQGTLVTVSS
VL: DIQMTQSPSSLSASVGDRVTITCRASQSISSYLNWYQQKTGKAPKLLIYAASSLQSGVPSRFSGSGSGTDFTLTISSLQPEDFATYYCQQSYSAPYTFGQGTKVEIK
notes: VH/VL only; also called 5-E2

- binding result [1]: binds
- binding result [2]: no binding
B4: A004 (antibody, V domains shown)
VH: B3 VH with R30S, H54E, R56S, N62D, A100S, Y101E, D103S, D104G
VL: DIQMTQSPSSLSASVGDRVTITCRASQRISNYLNWYQQKPGKAPKLLIYAASSLQSGVPSRFSGSGSGTDFTLTISSLQPEDFATYYCQQSYSPPYTFGQGTKVEIK
notes: VH/VL only; also called 2-H2

- binding result [1]: binds
- binding result [2]: no binding
B5: A005 (antibody, V domains shown)
VH: B3 VH with R30S, H54D, R56S, N57R, E58K, A100S, G102S, D104G
VL: B4 VL with R28S, N31R, P40T, A50G, P94T
notes: VH/VL only; also called 3-G6

- binding result [1]: binds
- binding result [3]: no binding
B6: A001 (antibody, V domains shown)
VH: EVQLLESGGGLVQPGGSLRLSCAASGFTFSSYAMSWVRQAPGKGLEWVSTIYASGATTYYADSVKGRFTISRDNSKNTLYLQMNSLRAEDTAVYYCARLKLYHAAFDIWGQGTLVTVSS
VL: B4 VL with R28D, N31S, A50T, P94Y, Y96L
notes: VH/VL only; also called 3-C11

- binding result [1]: binds
- binding result [3]: no binding
B7: A002 (antibody, V domains shown)
VH: EVQLLESGGGLVQPGGSLRLSCAASGFTFKNYAMSWVRQAPGKGLEWVSAISASGGYTYYADSVKGRFTISRDNSKNTLYLQMNSLRAEDTAVYYCARGRWGAFDYWGQGTLVTVSS
VL: QSVLTQPPSVSGAPGQRVTISCTGSSSNIGSGYDVHWYQQLPGTAPKLLIYGNRNRPSGVPDRFSGSKSGTSASLAITGLQAEDEADYYCQSYDSSLKTWVFGGGTKLTVL
notes: VH/VL only; also called 4-A8
